Experimental data from the DeepSol protein solubility set.

assay: soluble on expression in E. coli; label from the status in PepcDB or PDB records

Sequence | soluble on expression in E. coli
MGSDKIHHHHHHMEYEIVIGLEVHAELATKTKMYCGCTAEFGGQPNTHVCPVCMGLPGALPHINKRAVDYGIKAGLALNCSITHIGRMDRKHIFYPDNSRNYQITQDELPLCTNGYIEIELEDGSKKKIGVERIHIEEDAGKLLHTNAGTLVDFNRCGVPLAEIVSKPDMRSPREAVTYLEELKSILSCVGVSDCKMEEGSLRCDANISVMKKGAKEFGVRTEIKNMNSFKAVEKALNYEYERHIKAIESGEKLTQETRRWDDAKNETAPMRSKEEANDYRYFPEGDLVTLNIDDEWIESIRKTIPELPYQKRERFIKEFGIPKYDASVLTLTMSMADFFEKTAKISGDAKSASNWLMGDISKIMKENYVWIEDLKFTPEQLSELIKLINEGTVSNAIGKKVIIKMFETGKSPKNIIEEEGLIQNSNEDEILNIVKEVLSENEKSIEDYKNGKNRVVGFLIGLVMKKTKGKANPKIVNKLMIDELNKQ | not soluble
MGSDKIHHHHHHMHQGAHLDLDDGYQGDISNIGFIIGAKGVAVIDTGGSRQVGEALLSAIREITDLPVLYVINTHIHPDHIFGNAAFKQEHPVFIGHAKLPNAMALRGEAYLRQGQKLLGIQFSESEIIPPTQLVASFQELDIGGRKLLLTAYPNAHTNTDLTVLDETTGTLWTGDLLFIERAPSIDGDIKGWLSAIEDLQKLTGIQLAVPGHGPATQDLQGALSNQARYLNLLLHDVRKAIKQGHSMQQAMESAAASESGHWQLFHEVNRRNVNLIYPVLEWE | not soluble
MSCNSFFVFCANSKKEKKDKILEITPQGTTPLPCSRQSRMRDENGSTRTRGGSRGIKSSKEPDSTDDAFKEMAKRLAKKDKPEKTLDFI | soluble
MSLKEKSVINAVKAEILVEKLVDKLMKEQELNPSEDILRAYYEFYKREFYRPSSVKLLGIYVKSKKEAERISQILKQGEVPSTEDVKVSKPLWYSIPTLPKYIRRNFRTLSVGEVSKPIKINDGYLVFKILDKKPAGFIPFERAKSLVKKMYLKEKRKEVFKKWLSEVLKKYQVRSTGKTCNTFISRFFFRKVNRQGEGHHHHHH | not soluble
MCHEEVFSCCRTRTFHFLRSYGHDGWRNDGRNDERKADVSAHVLLPLHDAYDADDVHDADDGYALHGYEPHDGNDEHADDGSGNHEDCNRTQAKVYEGTYGKTPEENEKVIFSSFFPLFLEE | not soluble
LRLHQWLRNHQPDEPPPDSYGLWGEVFDNIYHLQRRNQRARGRLQAVIDRIQESTAALRDAVIMLDSDGNLEWWNLAAENLLGLKTPQDGGQPVSNLIRHPRFKEYFDQEDYREPLEIPSPINERLRLQFHITLYGNREHLMLVRDVTRVHQLEQMRKDFVANVSHELRTPLTVIAGYLETLLDNVEDVNPRWLRALQQMQQQAGRMQNLLNDLLLLAKLEATDYPGDNKPVAVDALLASIRNDAQALSAGRNHRISLDAAPAVQLKGSEAELRSAFSNLVFNAVKYTPDEGEIRIRWWADEQGAHLSVQDTGIGVDPKHLPRLTERFYRVDSSRASNTGGTGLGLAIVKHVLIRHRARLEISSVPGKGSTFTCHFAPAQVAEAERKAPK | not soluble
MSLEDCVISEWGPWTQCALPCNPSGSRQRSADPIRQPADEGRACPDAVEKEPCSLNKNCYHYDYNVTDWSTCQLSEKAVCGNGIKTRMLDCVRSDGKSVDLKYCEELGLEKNWPMNTSCTVECPVNCQLSDWSSWSQCSQTCGLTGKMIRKRTVTQPFQGDGRPCPSLMEQSKPCPVKPCYRWQYGQWSPCQVQEAQCGEGTRTRNISCVVSDGSAEDFSKVVDEEFCANTELEGHHHHHH | not soluble
MAGTVEGEKIDVGFAGKRCIHSRNCVLGDPHVFVPNAPGQWIHPDAASVEKIVAIAESCPSGAITYVRKDGGPQEQPPVVNTVRLRENGPLAVHAEIVLDGETFYRATLCRCGASENKPFCDGSHGKAGFTATGEPALKDAPALEARNGPLKVTPTTNGPLKLEGNVEIVTGTGHTIDRTQRTFLCRCGHSANKPFCDGSHKKIGFVA | not soluble
MGSDKIHHHHHHMISDLESLGIDFKDEGENYVPKKDYSGNLVAKYVFDSNGISTDNITLKDLSGHGYDGTMSGVSIKDDSELGKCAYFNGSASVNFNNQIIPKGNKTIIITFKKDSGTQSNGQYEFLIEQGSGQGESITSWSIRFDSYKTACLNNLYFCNDDSKINMLNSHPAVFNVCDGKKHTAIFNYYDNKTNNTYCDSLKAHVCSFDFNGGEYRTADNSIIGQKYVGYIKSIEIYDDVVEFNSISTGTSLNKNIDQLIIGQTDNLVATIMPEDVTDKSVIWSSSDPSIVAVDENGKITALKVGEVSITVTTNDGSNLSQTCMVAVIDTTIPDKACLNISMTNGQVKQYYVGMDLVNKFISWYKLRSAGSEEPFYEFDITQLSEPGILRHDYVVFNKISSFTVDDYVK | not soluble
MGSDKIHHHHHHMTQRHSRILLFVVNTPEFFLSHRLPIAIAAHKAGYEVHVASAEGDGVQAVLAHGFVHHSIGFARSGQNPWVEFRTLVSLVQVMRRVQPDIVHLITIKPVLYGGIAARLVRVPAVVSAVSGLGTVFLAHTWATRLRRWFIIELYKAAFKQRSLAVIFQNPDDRDTLISSGAIQSGDTRMIRGSGVSLDDYPCVTEPEGKPVAVMAARLLRNKGVVEFVGAARILRDRGVDVDMRLIGSPDLDNPASVTELELERWKSESVVTLMGYRKDIAHQYASSNIVCLPSYYGEGLPKSLVEAAACGRAVVTTDHPGCRDAILPDETGVLIPIKDSVALANAIQRLIENPDLRRKMGKAGRELAEEAFSIDQIVEQHLKIYDEVMATVRNGSLRQ | not soluble
MAHHHHHHMAEIHQDKTESAVSSSGILKNVVRHSPKVSSKEIEDSEIRIVKMAHEEENRKLQKMGKCAKDYTLPCPKFWKKKIMNKSENICIASSSYNGFCTPRQSFDNFTKSEKMKFETSCNVEWGCRNVVADACESGKRNYNEPCPEGFISQNDNTCMADLTVYDGLCNGQKIDFTHLTNDEKQNWSVACEAYWPCYIDCSLNNKALSTCPSNWKEINSYECIPPYSYNGPCKDTKNFKFFNELMKKKFEEKCKVTFVCTDLCEKNYRQECPLHWMKEGGYCLAPPSFNLCDRKKYLYSNLTQEEEKKKFEQECSVQWPCQKTSFCDMDWTAECPLNWVKEVPRQGRDQEGGDKYICTADSSLYRGRCAFISLPNGADEETKRELASTCDTPWPCSATGATAGAPEEGGPVPRSDSKIVERRNSAFTNGPVTFQGDVRTNGGPTYRVVDSQGDVSLADIMR | not soluble
ATEATNATNNQSTQVSQATSQPINFQVQKDGSSEKSHMDDYMQHPGKVIKQNNKYYFQTVLNNASFWKEYKFYNANNQELATTVVNDNKKADTRTINVAVEPGYKSLTTKVHIVVPQINYNHRYTTHLEFEKAIPTLADAAK | soluble
MKTLQDSIIFRHGAKIKGRIVQPPMLTNSGNDGYVTQDALDYYAARSQSAGMIIVEYTTVSENGGPSRSWARDREQLTIYDDKFKPGMAKLATVIKKMGIKLYYNWSIPVEKLIISLNWVSRFMHQVR | not soluble
LAAQMEQTDIELLWKQLEQTPGAQVTVSLEERTVTCEGNVYPFFVDDYTRWRLMEGLDDVGLTLRKEAEIAAFEARRPSFKPVTQ | not soluble
RTVAQNASETTVSYDTDTAVLSEADVLRIALSENATVKVADMDVRKQEYARRAARADLFPKVDLNGVYSHTLKKQVLYIDMPGFSSSEGIEMGRTHNTQGGVNVSMPLVSAQLWKSIAMTGEQLDLALEKARSSRIDLVAEVKKAYLSVLLAEDSYGVFKRSYDNALANYKNISDKFDRGLVAEYDKIRANVQVRNIEPNLLQAQNSVALALWQLKVLMSMEVETPIRLSGSLSDYKEQVYTGYFAADTLISNNSSLRQLDIQRRLAVSADKLNKYSFLPTLNLGGQYTYSLNSNDIKFWGEGQR | not soluble
MPQGRGDGGVRMAAISLTKVRETAPALVDLYKTAGVSLTKHGMAGTRAAVYLVVDYSGSMKPYYKDGSVQALADRVLSLSAHLDDDGIVPVVFFSTDVDAVTEIALADHQGRIERIVAGLGHMGKTSYHLAMDAVIDHYLDSGARHPALVVFQTDGGPINRLAAERYLCKAAPLPLFWQFVGFGDPDSRQFEYLRKLDELAVPGKRVIDNAGFFHAGRDPRKVTDAELYDRLVGEFPQWLAAARAQGIARPSLEHHHHHH | not soluble
MKEYIAFDIGGTQIKYGIVSEIGRVLKRQTVATEIHLGGEQIIQKLIYVSKKIMNEHTITGIGISTAGIVDINKGIVTGGADHIPGYSTIPIIDRLQEILKVPVSIDNDVNCAAFGEKWNGSGREKDNFIMLTLGTGIGGAIFIDGKLYRGHSFSAGEWGNMLIEEKTFEEVASISGLIRLVSKYKGKGKWNGKRIFELYDKGDREVAQAVGIFFKHLAIGISNLAYIFNPETIIIGGGITDRGNEFLKEVKEEVSKYLNQEIYNNCEIELAQNGNCAGMIGAIYHFLHHHK | not soluble
KGATFKEAEEHYHINALYLLAHSALESNWGRSKIAKDKNNFFGITAYDTTPYLSAKTFDDVDKGILGATKWIKENYIDRGRTFLGNKASGMNVEYASDPYWGEKIASVMMKINEKLGGKD | not soluble
DVTGLPTGFRDLDRITTGLHPDQLIILAARPAVGKTAFVLNIAQNVGTKQNRPVAIFSLEMGAESLVDRMLAAEGMVDSHSLRTGQLTDQDWNNVTIAQGALADAPIYIDDTPGIKITEIRARSRKLSQEVDDGLGLIVIDYLQLISGTRPENRQQEVSEISRQLKILAKELKVPVIALSQLSRGVEQRQDKRPVLSDI | not soluble
GTLDTTWKEATLPQVKAMLEKDTGKVSGDTVTYSGKTVHVVAAAVLPGFPFPSFEVHDKKNPTLEIPAGATVDVTFINTNKGFGHSFDITKKGPPYAVMPVIDPIVAGTGFSPVPKDGKFGYTNFTWHPTAGTYYYVCQIPGHAATGQFGKIVVK | soluble
MHKEIAKELLLLAGGKNNIISISHCTTRLRFDVKDETKIDIHAIENLQGVQGTFFRYGLFQIIFGAGVVNKIYKEVVHVWETAPSEEPVHQKKASRKLNPAAAFAKTLSDI | not soluble
MNKKYPKINYIGNKEKIASWICDQLPSDVDTVADVFSGGCSFAYEAKKRGYRVITNDILAINYQIALALIENNHETLNDDDVAMIFSGSPHAGFMSQRYSEKFYFHDECQQLDLYRKNIGKLNNQYKRALAFTLMRRAMIRKMPYSRFTIPWEKVKQLRDEEYSYAKYGRRRAYHNESFQSHFLQNLDDYNQAVFNNGWRHHAFNQDIFDLLPNIQADAVYLDPPYTGTMNNYFGFYGLLDSYITSSIPKPFANHFMDKKQAVELFKRVINHLKPFKYWLLSYNNASYPNRDELEEMLGKNGRNVQILETPHVYKVTGKEKKQSHKEILFLVENT | not soluble
MKLYFIINPAAKNGRSVSIWKQLQPLLDREGIAYQAYWTSRKGEGKEIARRIGEESVEPTVIAAVGGDGTVHEVVNGAGSFPHVAIGCIPAGTGNDFVRGFRLARKPKQALQRLLSDVRSGKDLAFDLGRFASSAVPDGVFANSIGCGFDAHIARMANRSKWKGRLNRFGLGSFIYVFYLVRELFRYQPVDLDICVDGQNYSFLKAWLATASNHPYYGGGMRIAPSVRADDGLLHVTVVGPMPRWKILALFLTVFWGGHVRMKEVCVFTGRNVRIRPAAPVLIHADGEDAGEGEVFAWIEPGRLRVIGVKTR | not soluble
GSGRVSLNFKDPEAVRALTCTLLREDFGLSIDIPLERLIPTVPLRLNYIHWVEDLIGHQDSDKSTLRRGIDIGTGASCIYPLLGATLNGWYFLATEVDDMCFNYAKKNVEQNNLSDLIKVVKVPQKTLLMDALKEESEIIYDFCMCNPPFFANQLEAKGVNSRNPRRPPPSSVNTGGITEIMAEGGELEFVKRIIHDSLQLKKRLRWYSCMLGKKCSLAPLKEELRIQGVPKVTYTEFCQGRTMRWALAWSFYD | soluble
